The assay addresses monomeric Uox conjugated to HSA (HSA-conjugated Uox-W160.174AzF subunit of Uox-HSA) (Aspergillus flavus | human) (UniProt P02768). The assay is described as follows: co-purification by ion exchange chromatography, read by SDS-PAGE.
UniProt P02768, sequence (P02768 whole entry, looked up): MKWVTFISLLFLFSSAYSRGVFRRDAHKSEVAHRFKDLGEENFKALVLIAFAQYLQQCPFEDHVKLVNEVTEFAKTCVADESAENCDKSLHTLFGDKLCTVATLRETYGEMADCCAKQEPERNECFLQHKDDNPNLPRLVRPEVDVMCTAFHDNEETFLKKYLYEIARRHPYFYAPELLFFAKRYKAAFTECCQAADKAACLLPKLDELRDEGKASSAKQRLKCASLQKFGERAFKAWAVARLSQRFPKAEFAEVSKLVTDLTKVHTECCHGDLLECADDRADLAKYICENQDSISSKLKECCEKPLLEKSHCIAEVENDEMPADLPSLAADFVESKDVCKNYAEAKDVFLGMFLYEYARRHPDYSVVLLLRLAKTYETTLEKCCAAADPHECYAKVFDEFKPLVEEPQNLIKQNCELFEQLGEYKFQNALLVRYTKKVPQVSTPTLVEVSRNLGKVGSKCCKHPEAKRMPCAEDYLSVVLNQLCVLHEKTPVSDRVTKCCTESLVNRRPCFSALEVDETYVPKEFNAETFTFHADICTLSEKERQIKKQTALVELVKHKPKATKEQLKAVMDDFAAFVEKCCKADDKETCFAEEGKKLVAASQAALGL

In the case of “AzF-incorporated urate oxidase (Uox-W160.174AzF) (enzyme)”, the molar ratio of unreacted Uox monomer to monomeric Uox conjugated to HSA came out at 2.5.
